Test results reported in article PMC9712175.

Biological target: extracellular domain (ECD) of human insulin-like growth factor-1 receptor (hIGF-1R) (human) (UniProt P08069)
Experiment: other fluorescence titration

UniProt P08069, sequence (P08069 741-935): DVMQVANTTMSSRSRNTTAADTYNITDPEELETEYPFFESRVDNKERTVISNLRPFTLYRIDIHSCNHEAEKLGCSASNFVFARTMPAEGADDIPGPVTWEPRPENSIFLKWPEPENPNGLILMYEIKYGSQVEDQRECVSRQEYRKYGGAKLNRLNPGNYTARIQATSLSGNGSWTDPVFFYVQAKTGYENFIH

Substance: full-length human insulin-like growth factor 1 (hIGF1) (from UniProt P05019 22-118) (ligand)
- Kd: 90 nM
